Assay results published in a protein production outcome set (Wang et al. 2014).

Experiment: label from the status in PepcDB records
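Also: failed if final PepcDB status was selected cloned or expressed and not failed if soluble or beyond.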

Sequence	protein production
MISPDAKIKIQNFGRFLSNMVMPNIGAFIAWGFITALFIPTGWLPNETLASMVGPMITYLLPLLIGYTGGKLVGGDRGAVVGAITTMGVIVGTDIPMFMGAMMVGPMGGWAIKKFDNYIDGKVKSGFEMLVNNFSAGIIGMLCAILAFFLIGPFVKVLSGALAAGVNFLVSAHLLPLTSIFVEPAKILFLNNAINHGIFSPLGIQQASETGQSIFFLIEANPGPGLGILLAYMVFGKGTARQTAGGASIIHFFGGIHEIYFPYILMNPRLILAAIAGGMTGVFVLTMFNAGIVSPASPGSIFAILLMTQKGSIVGVLASIAAATGVSFAVASLLMKTQTSTEEDGDEAALEKATSQMKDMKSSSKNGAVVNNESKGDVDLATVQSIIVACDAGMGSSAMGASMLRKKVQDAGLNVHVTNLAINSLPESADIVITHKDLTGRARKHAPNAHHISLTNFLDSEMYNQLVTKLLAAQKQSAANDDQMVKVSVLAANDDSFEPQQPSVFQIQRENIHLGLKAANKEEAIRFAGNKLVELGYAEPEYVDAMFEREALVPTYLGESIAVPHGTVEAKDRVKKTGIVICQYPSGIQFTEDDDDVAKLVIGIAAKNDEHIQVITTITNALDEPEAIEKLTSTNDVEEILNILGGQQAA	failed
MKFLTVSDDMNFLRQVNTLVAGKGDMDSVIIGEGDAKGLGSKVLYRAKKGTPFDAVSEGILKIAGNYDYIAIGSTEVGREIAGYLSFKTGFYTATEIFSLEFNGQKAHTKRFFYGGKTVIEEESDARILTVAPGVIEAKDLGTTPEIRDLEIGQSRIKITKFV	not failed
MSEQRQDKNLLSEPHKTESDEIEIDLVDIFRKIIAIRRKLYKAIGVGFIIGMIVAVSIPKQYTVKVTLSPEMGSSKGGNGLAGLAASFLGSSATTGEVSDALNASLSSDIVSSTPFLLELLDMKVALSDERTDITLMDYLDRQSSPWWNYVIGLPGMVIGGVKSLFNSDDNDNSLNKVKSGTIELTKEEGIKVNVLKKNISASVDKKTAITSVSVTLQDPKVTAVVADSVVHKLQECIVGYRISKAEEDCIYLEKLYKERQQEYYVAQKKYADYVDTHDNLILQSVRAEQERLQNDMNLAYQVYSQVANQLQVARAKVQEEKPVFAVIEPAVVPQHASSIGLRIYVLLFIFLSVCYTISWNLLGKKIRYILKGSKENQQ	failed
MAKHRLDALLVERGLCPSRQQAQRLIRAGEVRVAQAIVDKPGSLVAEDAVIEVAAKPPYVSRGGEKLAKALATFPIALSDRICLDAGISTGGFTDCLLQAGASKVYGIDVGYGQVDWKIRTDPRVLLRERTNIRNLQPTDLYGSDDVWPDLAVADLSFISLTKVLLTLGQLLRSPRELILLVKPQFEVGREKVGKGGVVRDRKDHVTAIAQVLESAQGLGWHGQGLTWSPLLGPAGNVEYLLWLSEAETTWAGDRAAIEALTTEAIATLRAGLEHHHHHH	not failed
MEPNIYQLALAALFGASFVAVSGFFMHFKALNLVLERGKERKENPDGDEPQNPTLVRRRSQVRRKVNDQYGRSPASLPDATPFTDGGGGGGGDTGRSNGHVYVDEIPPGLPRLHTPSEGRASVHGASSIRKTGSFVRPISPKSPVASASAFESVEESDDDDNLTNSEGLDASYLQANGDNEMPADANEEQISMAASSMIRSHSVSGDLHGVQPDPIAADILRKEPEQETFVRLNVPLEVPTSDEVEAYKCLQECLELRKRYVFQETVAPWEKEVISDPSTPKPNTEPFAHYPQGKSDHCFEMQDGVVHVFANKDAKEDLFPVADATAFFTDLHHVLKVIAAGNIRTLCHRRLVLLEQKFNLHLMLNADKEFLAQKSAPHRDFYNVRKVDTHVHHSACMNQKHLLRFIKSKLRKEPDEVVIFRDGTYLTLREVFESLDLTGYDLNVDLLDVHADKSTFHRFDKFNLKYNPCGQSRLREIFLKQDNLIQGRFLGEITKQVFSDLEASKYQMAEYRISIYGRKMSEWDQLASWIVNNDLYSENVVWLIQLPRLYNIYKDMGIVTSFQNILDNIFIPLFEATVDPDSHPQLHVFLKQVVGFDLVDDESKPERRPTKHMPTPAQWTNAFNPAFSYYVYYCYANLYVLNKLRESKGMTTITLRPHSGEAGDIDHLAATFLTCHSIAHGINLRKSPVLQYLYYLAQIGLAMSPLSNNSLFLDYHRNPFPVFFLRGLNVSLSTDDPLQIHLTKEPLVEEYSIAASVWKLSACDLCEIARNSVYQSGFSHALKSHWIGKDYYKRGPDGNDIHKTNVPHIRVEFRDTIWKEEMQQVYLGKAVISDEVVP	not failed
MEEGKKMKRIIGMIVSLALLAGLLAGCSTSATGSNINTPAAQAEKTPGAGGSGAEEAAWPRTIVDATGKEITLTEQPQRIAILHSLYLEYFLALGTPPIASAGASTGDAMKALGEWETLKPYAGTAKIIDLGSARDLNLEAILGANPDVIVTFKGQGNLDKIYEQLEQIAPVILVDFSAPWQEQILACAEIVNKEADAQKLIKEIEDSVQSAKEKLSRHQDKTIAIFRTDGGKAFVTRGNKDYYDTFGIAKPEGYPDDYETLSLEAVAEMNPDYIIFQDFITTSQAFVKTQEASSVWQAMEAVKKGQVVYFDDSLNTFGPLATKLTAEKLIQIISD	failed
MYLTREEERILAGEEGEARAKALEVIVKVGEAVGAERLIPIKHAHVSGASYMTIGDAGLRFLARLAESGARFSVPTTVNPVSYDVEEPGAIPMTRLSPRIVKAQSEILKALEAMGADLILTCTPYYTEVPRRVGLREGDSVAWGESSAVAYANSVLGIHTNREGGPLALMAGIAGRTYFYGAHDPEWRKPRVAYRLETPKVLDETEAGVLGEVIATQHRDEHPPLLDAPLGGEAALKEFSAAVGSAGSLAMVHITGVTPGDPGDMIEEVVTMDYGDLARRMEDLAPGFEPDILYVGCPHASIEELRRLYRALSKAGERAGRRTVVSISRSLYLQALREGLVEKLKGLGVRFVRDSCLIVSPFSSGARGVRVATNSYKAYFYLSKKGVEVGLAPIEALPKLVS	failed
RTKDGLTLYTRRWDVESPRAVICLVHGLGEHSGRYEHVARFFNENGISFAAFDLRGHGRSEGKRGHAEYQQLMDDITLFLQSLDYDCPKILYGHSMGGNLALNYILRYDPDIAGGIISAPFLALPKELPKHLFFILKLLNVVAPSIQLSNGIDPNLISRDREVVEAYVSDPLVHDKISPRFILQSLEAGKWALENADRLRKPILLIHGTADQITSYRASQEFAKRAGELCKFVSYEGFYHEPHNEPEKERVLADMLKWIEEVI	failed
MRVAVAGFGGVGRRLARLLLERGGSHGLSLAAAIDSRGHAVFDSRGCVEEALSAPRGGLAGVSCGAPGSGPGVLRGLGYDALVLTTASSPGTGEPGLGYARAALEDGKVVVAADKPPVALLLLEHGGPPPGLFYKATVMAGTPLIDLLRVGLAGRRVLRVVGVLNGTSNYILNLLMEGV	failed
MESGNVVNTQPELSGIIDGSKSYMYEQLWKLCAGPLCDIPKLGEKVYYFPQGHIELVEASTREELNELQPICDFPSKLQCRVIAIQLKVENNSDETYAEITLMPDTTQVVIPTQNQNQFRPLVNSFTKVLTASDTSVHGGFSVPKKHAIECLPPLDMSQPLPTQEILAIDLHGNQWRFRHIYRGTAQRHLLTIGWNAFTTSKKLVEGDVIVFVRGETGELRVGIRRAGHQQGNIPSSIVSIESMRHGIIASAKHAFDNQCMFIVVYKPRSSQFIVSYDKFLDVVNNKFNVGSRFTMRFEGDDFSERRSFGTIIGVSDFSPHWKCSEWRSLEVQWDEFASFPRPNQVSPWDIEHLTPWSNVSRSSFLKNKRSREVNEIGSSSSHLLPPTLTQGQEIGQQSMATPMNISLRYRDITEDAMTPSRLLMSYPVQPMAKLNYNNVVTPIEENITTNAVASFRLFGVSLATPSVIKDPVEQIGLEISRLTQEKKFGQSQILRSPTEIQSKQFSSTRTCTKVQMQGVTIGRAVDLSVLNGYDQLILELEKLFDLKGQLQARNQWEIAFTNNEEDKMLVGEDPWPEFCNMVKKIFIYSKEEVKNLKSRKSLSS	failed
MDNANCVGGCKFETRSFQYRRRIPYSLGADPLPPVHPLSLKNLVDIDTDLISSQLYELYDSIILNDSGLERRYAFVQKLEQILKKEFPYKNIKTSLFGSTQSLLASNASDIDLCIITDPPQCAPTTCEVSAAFARNGLKKVVCISTAKVPIVKVWDSELQLSCDCNINKTISTLNTRLMRSYVLCDPRVRPLIVMIKYWAKRRCLNDAAEGGTLTSYTISCMVINFLQKRDPPILPSLQMLPHLQDSSTMTDGLDVSFFDDPDLVHGFGDKNEESLGILFVEFFRFFGYLFDYEHFVLSIRHGTFLSKRAKGWQFQLNNFLCVEEPFHTSRNLANTADEITMKGIQLEFRRVFRLLAYNCNVDDACSQFTFPSLTDTSFMDDYVNELQLEIVPGFSHGRDSSDTSCTESPPEPSHFAWAFDPYNATASPYYNQNINSSIDYSSIYSNDVPAIPPNVPYTFVDPYTYACYINNNSYLPPSYMDFYTWYNSPYPKSSHHFDERHGGDRHEKNLSNSRRYSRNKFHKKKQSSGPFQYYPDAFSFTPTDNNSPPSNSSSSEVVSPVSLHSEPVLSTVQAFKS	failed
MAQEDVTAVATNGAGPVETHLVFTEFKQMLLVEAQKVGDAVTFYKSAFGAIESGHSLYPKRKLDQELPHVLSSELNLAGSSFVVCDVSSLPGFSTAKSEGSGVTFLLGTKDAEAAVAKAVDAGAVKVEVTEAEVELGFKGKVTDPFGVTWIFAEKKTVITDENKEV	not failed
MSFLVLLLAVLIEKFSALRQRVQRDEPWLNAFARREASPRTAKRPWLTLALLILVPVLLLQLALTIIGSVAYGWLVLPIHLLVLIYSLGRVDLIAVLGPFRDACRRGDAQAAVHVAQRDMRVEADNGEQLLQGVQGYMLWQAFQSFFAVIFWYFVLGPVAALAYRLLALAAEHGKTPPLVERAGQLRHAFDWVPVRLLAASFALVGNFVAVSRVMLHELLNWNISAAQLITRVGCAASEVPPPVIGTQGVTSLDMLWELLVRAAIVWYAGFALWTLLR	failed
MDSVVSDVSDLVEPDEELKAWQTDRTRAPIATKIVVAGGFGAGKTTLVTAVSEITPLQTEALMTQASEDTDDLTGTPDKLTTTVAMDFGRITLDDDLVLYLFGTPGQQRFWFMWDDLVRGAIGAVVLADTRRLSDCFPALDYFESCGLPYVVAVNHFDGSEKFEPEDVREALTVPAHIPVMIMDARRRISVIETLLALVGHALEVSPELEHHHHHH	not failed
MSLAPWRGAIAHALHRNRSLVYARYLQLATVQPNGRPANRTLVFRGFLEDTNQLRFITDTRSAKADQIQQQPWAEICWYFPNTREQFRMAGDLTLISSDDSHQDLQPARIAMWQELSDAARLQFGWPYPGKPRIKESGAFEPSPPDPIEPVPNFCLLLLDPVQVDHLELRGEPQNRWLYHRNDQQEWSSEAINP	not failed
MDPKHKKLLRTQRLFLSEELLVDDLIIQYLYQEEILTESHLEEIQSESSSRNKTLKLLDILPSRGATAFHHFIKSLEKDFPWIRDKLLQLNEEEESPPPPFTVQCGVPDHILLTVPTTLHLNQLASRLGSEWKSVLLDLGLSCADLYRCCSDHPLAVQSQVLAGLVMWTQRNGRGATVQRLIQSLQAADVPPSVLQQVFK	failed
MRMENQKDLQENYLKVLERVELGSRVSGTVVNIMKDYVLVDIGYKSEGFIKIEEFENVPQVGDRLEAIVVRIGGELGLILSVEKLNSLNFQDKVYEYIQNKKIIKGKVLVELPNGYKIQINENVSGFMPFYLSSKSKDEKLKRGSVVEFYILEASEADGLRLILDRRTLEKERDLAKRIELVSSYNEEDVVDGVVERITEYGAIVKIKNFVTGILHKRNIAFNQVENVEDFVRVGDKLKLKIIKINPQTGKMELSLKALKANPWDSVDVKYKIDSIVKGKVVKILPFGAVIELDSELSGFLHISNFSWIRVVKSPQELIKLGQIVEVKILEIDKENQKISLGIKQINENPWERLTEKYPIGRVVQGVVTNITKTGAFVNIEEGIDAYVSKFDISWLEEIDPEEYFKIGDLVNGKVLEVDKRKRNVRLGIKQLEESPWEDFSKSYKKGDTIEVEIVEKKSKGFQVRVYNKIMGFISKIQLGDTKESSLETFEKLNVGDKLKVVITSIDSKDKSVLLSYREYENQRSREEISSYLFKGNDEESYKPFENLLKRDELEHHHHHH	not failed
